# T1: Mouse cKIT ECD, C-terminal 6x His (Sino Biological Inc, catalog number 50530-M08H) (mouse, UniProt P05532 25-527)
# T1 construct: extracellular domain; Bought protein
# T1 sequence (looked up): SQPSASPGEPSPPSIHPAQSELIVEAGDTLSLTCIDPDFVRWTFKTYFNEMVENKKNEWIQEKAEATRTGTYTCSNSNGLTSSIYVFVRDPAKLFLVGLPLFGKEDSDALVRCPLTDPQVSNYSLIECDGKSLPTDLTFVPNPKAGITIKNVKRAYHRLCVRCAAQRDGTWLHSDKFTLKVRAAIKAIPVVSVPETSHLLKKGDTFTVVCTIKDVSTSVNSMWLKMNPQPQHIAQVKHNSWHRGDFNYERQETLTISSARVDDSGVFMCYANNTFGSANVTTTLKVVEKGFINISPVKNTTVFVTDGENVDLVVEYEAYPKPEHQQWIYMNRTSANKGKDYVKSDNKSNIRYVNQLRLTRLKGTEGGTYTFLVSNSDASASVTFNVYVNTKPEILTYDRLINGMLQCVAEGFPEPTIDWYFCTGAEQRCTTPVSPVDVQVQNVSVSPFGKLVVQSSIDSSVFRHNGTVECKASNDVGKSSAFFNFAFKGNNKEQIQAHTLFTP
# T2: Rat cKIT D1-5 (residues 25-526, C-terminal mFc) (rat)
# T2 construct: The entry includes the linker and mouse Fc tag; also called rat cKIT-mFc
# T2 chain: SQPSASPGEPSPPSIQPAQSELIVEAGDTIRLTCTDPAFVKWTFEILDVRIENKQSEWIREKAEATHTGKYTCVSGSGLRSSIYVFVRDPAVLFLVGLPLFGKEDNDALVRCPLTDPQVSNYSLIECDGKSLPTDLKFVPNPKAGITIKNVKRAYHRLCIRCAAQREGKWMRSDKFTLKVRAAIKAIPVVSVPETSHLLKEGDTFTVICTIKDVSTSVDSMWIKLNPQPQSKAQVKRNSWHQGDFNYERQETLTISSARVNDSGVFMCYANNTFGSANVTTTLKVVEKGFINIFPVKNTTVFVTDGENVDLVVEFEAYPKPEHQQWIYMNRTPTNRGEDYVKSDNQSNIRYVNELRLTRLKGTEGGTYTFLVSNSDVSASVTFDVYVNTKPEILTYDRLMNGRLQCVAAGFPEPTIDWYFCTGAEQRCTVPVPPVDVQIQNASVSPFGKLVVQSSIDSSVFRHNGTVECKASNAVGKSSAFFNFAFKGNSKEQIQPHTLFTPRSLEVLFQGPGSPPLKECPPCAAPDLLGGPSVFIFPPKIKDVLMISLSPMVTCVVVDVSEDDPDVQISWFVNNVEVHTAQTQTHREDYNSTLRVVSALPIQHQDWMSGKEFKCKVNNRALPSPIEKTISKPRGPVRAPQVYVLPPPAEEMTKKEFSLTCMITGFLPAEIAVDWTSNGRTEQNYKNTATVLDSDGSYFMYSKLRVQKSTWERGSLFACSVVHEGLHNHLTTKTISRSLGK
# T3: Cynomolgus monkey cKIT D1-5 (residues 25-520, C-terminal His tag) (cynomolgus monkey, UniProt P10721 25-520 (human entry))
# T3 construct: the signal peptide was not part of the protein in the assay; also called cyno cKIT; cynomolgus monkey ECD
# T3 chain: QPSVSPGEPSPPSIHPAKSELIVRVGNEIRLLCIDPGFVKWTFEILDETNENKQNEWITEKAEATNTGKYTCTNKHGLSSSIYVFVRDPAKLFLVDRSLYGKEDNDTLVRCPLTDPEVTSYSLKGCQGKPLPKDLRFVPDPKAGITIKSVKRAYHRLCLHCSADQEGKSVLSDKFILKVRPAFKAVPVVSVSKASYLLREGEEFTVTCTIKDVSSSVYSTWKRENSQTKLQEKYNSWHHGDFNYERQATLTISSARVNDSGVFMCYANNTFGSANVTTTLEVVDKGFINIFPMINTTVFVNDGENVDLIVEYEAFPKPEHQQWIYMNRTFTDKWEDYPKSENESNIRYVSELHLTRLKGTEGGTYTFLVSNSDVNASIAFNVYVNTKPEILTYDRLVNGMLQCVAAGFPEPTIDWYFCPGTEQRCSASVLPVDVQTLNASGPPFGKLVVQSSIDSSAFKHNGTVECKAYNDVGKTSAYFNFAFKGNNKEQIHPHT
# Assays:
# [1] = biological target: T1, Mouse cKIT ECD, C-terminal 6x His (Sino …); assay: SPR (Biacore 2000), antibody captured on anti-human Fc
# [2] = biological target: T2, Rat cKIT D1-5 (residues 25-526, …); assay: as above
# [3] = biological target: T4, Human cKIT D1-5 (human cKIT tr. variant 2, residues 26-520, C-terminal His tag) (human, UniProt P10721 26-524); assay: SPR (Biacore T100), CM5 chip, method as in Example 7; unconjugated antibody
# T4 construct: also called human cKIT ECD; Human c-Kit ECD
# [4] = biological target: T4, Human cKIT D1-5 (human cKIT tr. variant …); assay: SPR (Biacore 2000), antibody captured on anti-human Fc, cKIT ECD as analyte, 25 C, 1:1 fit
# [5] = biological target: T3, Cynomolgus monkey cKIT D1-5 (residues …); assay: as above
# [6] = biological target: T5, human cKIT ECD (Homo sapiens, UniProt P10721); assay: SPR (Biacore 2000) affinity measurement; format: binding; details: 25° C.
# T5 construct: Human cKIT tr. variant 2, residues 26-520-TAG; made in house; host or cells: HEK293 derived cell lines (293FS), transient transfection
# Procedure: (§1) Affinity of the antibodies to cKIT species orthologues and also to cKIT was determined using SPR technology using a Biacore® 2000 instrument (GE Healthcare, Pittsburgh, Pa.) and with CM5 sensor chips.
# (§2) Briefly, HBS-P (0.01 M HEPES, pH 7.4, 0.15 M NaCl, 0.005% Surfactant P20) supplemented with 2% Odyssey® blocking buffer (Li-Cor Biosciences, Lincoln, Nebr.) was used as the running buffer for all the experiments. The immobilization level and analyte interactions were measured by response unit (RU). Pilot experiments were performed to test and confirm the feasibility of the immobilization of the anti-human Fc antibody (Catalog number BR100839, GE Healthcare, Pittsburgh, Pa.) and the capture of the test antibodies.
# (§3) For kinetic measurements, the experiments were performed in which the antibodies were captured to the sensor chip surface via the immobilized anti-human Fc antibody and the ability of the cKIT proteins to bind in free solution was determined Briefly, 25 μg/ml of anti-human Fc antibody at pH 5 was immobilized on a CM5 sensor chip through amine coupling at flow rate of 5 μl/minute on all two flow cells to reach 10,500 RUs. 0.1-1 μg/ml of test antibodies were then injected at 10 μl/min for 1 minute. Captured levels of the antibodies were generally kept below 200 RUs. Subsequently, 3.125-50 nM of cKIT receptor extracellular domains (ECD) were diluted in a 2-fold series and injected at a flow rate of 40 μl/min for 3 min over both reference and test flow cells. Table of tested ECDs is listed below. Dissociation of the binding was followed for 10 min. After each injection cycle, the chip surface was regenerated with 3 M MgCl2 at 10 μl/min for 30 s.
# [7] = biological target: mouse cKIT ECD; assay: SPR (Biacore 2000) affinity measurement; format: binding; details: 25° C.
# Procedure: as §1, §2, §3
# [8] = biological target: T4, Human cKIT D1-5 (human cKIT tr. variant …); assay: SPR (Biacore T100), CM5 chip, method as in Example 7; MCC-DM1 conjugate
# T5 sequence (P10721 with tags, fused parts or gaps isoform P10721-2): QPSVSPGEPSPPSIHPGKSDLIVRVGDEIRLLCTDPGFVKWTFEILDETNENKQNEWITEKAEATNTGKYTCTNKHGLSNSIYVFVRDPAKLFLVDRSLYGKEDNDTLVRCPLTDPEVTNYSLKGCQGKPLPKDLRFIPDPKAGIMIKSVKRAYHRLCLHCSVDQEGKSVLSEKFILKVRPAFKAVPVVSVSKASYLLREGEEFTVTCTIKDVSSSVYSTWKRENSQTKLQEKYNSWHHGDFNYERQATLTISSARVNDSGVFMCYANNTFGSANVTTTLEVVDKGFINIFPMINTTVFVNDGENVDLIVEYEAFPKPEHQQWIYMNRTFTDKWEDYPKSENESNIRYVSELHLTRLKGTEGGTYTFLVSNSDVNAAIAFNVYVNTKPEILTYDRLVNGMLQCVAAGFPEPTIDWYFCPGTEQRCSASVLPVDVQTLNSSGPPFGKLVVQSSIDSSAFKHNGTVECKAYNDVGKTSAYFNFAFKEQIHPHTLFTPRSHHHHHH
# T4 sequence (P10721 other isoform, or with tags, fused parts or gaps mutant limits assumed): as the sequence (P10721 with tags, fused parts or gaps isoform P10721-2) above
Molecule,binding result [1],binding result [2],Kd [3] [nM],Kd [4] [nM],Kd [5] [nM],Affinity human cKIT (nM) [6],Affinity mouse cKIT (nM) [7],Kd [8] [nM]
"NEG086 (antibody, human IgG1, kappa, V domains shown, Humanized, optimized variant of 9P3; human IgG1 kappa) VH: EVQLVESGGGLVQPGGSLRLSCAASGFTFSDYYMAWVRQAPGKGLEWVANINQIAGSTYYVDSVQGRFTISRDNAKNSLYLQMNSLRAEDTAVYYCARGDYYGTTYWYFDVWGQGTTVTVSS VL: DIQMTQSPSSLSASVGDRVTITCRASQSISSYLNWYQQKPGKAPKLLIYYTSRLQSGVPSRFSGSGSGTDFTLTISSLQPEDFATYYCQQGRRLWSFGGGTKVEIKR",no binding (tested: 3.125-50 nM of cKIT ECD injected),no binding (tested: 3.125-50 nM of cKIT ECD injected),1.4,1.44,1.34,,,
"NEG086: anti-cKIT antibody of Table 1; VH SEQ ID NO 100, VL SEQ ID NO 109 (antibody, V domains shown) VH: EVQLVESGGGLVQPGGSLRLSCAASGFTFSDYYMAWVRQAPGKGLEWVANINQIAGSTYYVDSVQGRFTISRDNAKNSLYLQMNSLRAEDTAVYYCARGDYYGTTYWYFDVWGQGTTVTVSS VL: DIQMTQSPSSLSASVGDRVTITCRASQSISSYLNWYQQKPGKAPKLLIYYTSRLQSGVPSRFSGSGSGTDFTLTISSLQPEDFATYYCQQGRRLWSFGGGTKVEIK",,,,,,nanomolar level,Not reactive,
"NEG087: anti-cKIT antibody of Table 1; VH SEQ ID NO 118, VL SEQ ID NO 127 (antibody, V domains shown) VH: EVQLVESGGGLVQPGGSLRLSCAASGFTFSDYYMAWVRQAPGKGLEWVASINQNTGSTYYLDSVRGRFTISRDNAKNSLYLQMNSLRAEDTAVYYCARGDYYGTTYWYFDVWGQGTTVTVSS VL: DIQMTQSPSSLSASVGDRVTITCRASQSISSYLNWYQQKPGKAPKLLIYYTSRLQSGVPSRFSGSGSGTDFTLTISSLQPEDFATYYCQQGRRLWSFGGGTKVEIK",,,,,,nanomolar level,Not reactive,
"NEG027: anti-cKIT antibody of Table 1; VH SEQ ID NO 64, VL SEQ ID NO 73 (antibody, V domains shown) VH: EVQLVESGGGLVQPGGSLRLSCAASGFTFSDYYMAWVRQAPGKGLEWVASINQNTGSTYYLDSVRGRFTISRDNAKNSLYLQMNSLRAEDTAVYYCARGDYYGTTYWYFDVWGQGTTVTVSS VL: EIVMTQSPATLSLSPGERATLSCRASQDISNYLNWYQQKPGQAPRLLIYYTSRLQSGIPARFSGSGSGTDYTLTISSLEPEDFAVYYCQQGKKLWSFGGGTKVEIK",,,,,,nanomolar level,Not reactive,
"NEG026: anti-cKIT antibody of Table 1; VH SEQ ID NO 46, VL SEQ ID NO 55 (antibody, V domains shown) VH: EVQLVESGGGLVQPGGSLRLSCAASGFTFSDYYMAWVRQAPGKGLEWVANINQNTGSTYYVDSVQGRFTISRDNAKNSLYLQMNSLRAEDTAVYYCARGDYYGTTYWYFDVWGQGTTVTVSS VL: EIVMTQSPATLSLSPGERATLSCRASQDISNYLNWYQQKPGQAPRLLIYYTSRLQSGIPARFSGSGSGTDYTLTISSLEPEDFAVYYCQQGKKLWSFGGGTKVEIK",,,,,,,Not reactive,
"NEG085-MCC-DM1 (antibody, human IgG1, kappa, V domains shown, DM1 linked through the MCC (SMCC) linker to primary amines of the antibody, sites not stated; DM1 linked through the MCC (SMCC) linker to primary amines of the antibody, sites not stated; average MAR 3.5 (Table 7), Antibody drug conjugate of NEG085) VH: EVQLVESGGGLVQPGGSLRLSCAASGFAFSGYYMAWVRQAPGKGLEWVANINYPGSSTYYLDSVKGRFTISRDNAKNSLYLQMNSLRAEDTAVYYCARGDYYGTTYWYFDVWGQGTTVTVSS VL: DIQMTQSPSSLSASVGDRVTITCRASQSISSYLNWYQQKPGKAPKLLIYYTSRLQSGVPSRFSGSGSGTDFTLTISSLQPEDFATYYCQQGRRLWSFGGGTKVEIKR",,,,,,,,5.2
"NEG085 (antibody, human IgG1, kappa, V domains shown, Humanized, optimized variant of 9P3; human IgG1 kappa; also called unconjugated NEG085) VH: EVQLVESGGGLVQPGGSLRLSCAASGFAFSGYYMAWVRQAPGKGLEWVANINYPGSSTYYLDSVKGRFTISRDNAKNSLYLQMNSLRAEDTAVYYCARGDYYGTTYWYFDVWGQGTTVTVSS VL: DIQMTQSPSSLSASVGDRVTITCRASQSISSYLNWYQQKPGKAPKLLIYYTSRLQSGVPSRFSGSGSGTDFTLTISSLQPEDFATYYCQQGRRLWSFGGGTKVEIKR",no binding (tested: 3.125-50 nM of cKIT ECD injected),no binding (tested: 3.125-50 nM of cKIT ECD injected),4.2,8.4,6.14,,,
"NEG024 (antibody, human IgG1, kappa, V domains shown, Humanized, optimized variant of 9P3; human IgG1 kappa) VH: EVQLVESGGGLVQPGGSLRLSCAASGFTFSDYYMAWVRQAPGKGLEWVANINQIAGSTYYLDSVRGRFTISRDNAKNSLYLQMNSLRAEDTAVYYCARGDYYGTTYWYFDVWGQGTTVTVSS VL: EIVMTQSPATLSLSPGERATLSCRASQDISNYLNWYQQKPGQAPRLLIYYTSRLQSGIPARFSGSGSGTDYTLTISSLEPEDFAVYYCQQGKKLWSFGGGTKVEIKR",no binding (tested: 3.125-50 nM of cKIT ECD injected),no binding (tested: 3.125-50 nM of cKIT ECD injected),1.3,1.31,1.15,,,
